# Measured values from article PMC9340783, “Development of a fully human anti‐GITR antibody with potent antitumor activity using H2L2 mice” (FEBS Open Bio, 2022).
# T1: cynoGITR on 293F‐cynoGITR cells (Macaca fascicularis)
# T1 construct: also called 293F‐cGITR
# T1 chain: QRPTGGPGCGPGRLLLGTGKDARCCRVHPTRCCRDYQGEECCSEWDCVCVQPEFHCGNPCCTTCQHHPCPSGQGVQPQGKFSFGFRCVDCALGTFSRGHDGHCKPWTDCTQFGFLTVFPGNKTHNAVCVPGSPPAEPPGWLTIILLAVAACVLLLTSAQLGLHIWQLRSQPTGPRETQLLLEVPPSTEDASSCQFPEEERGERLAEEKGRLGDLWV
# T2: cynoGITR ECD hFc (Macaca fascicularis)
# T2 construct: cynomolgus GITR, extracellular domain, Gln20-Glu155, NCBI XP_005545180.1; also called cynoGITR protein; cGITR; source: FreeStyle 293F, transiently transfected, purified by protein A
# T2 chain: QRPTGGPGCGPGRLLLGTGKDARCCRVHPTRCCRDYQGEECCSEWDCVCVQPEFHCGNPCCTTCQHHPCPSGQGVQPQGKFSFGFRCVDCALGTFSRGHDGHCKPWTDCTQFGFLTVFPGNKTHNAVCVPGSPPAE
# B1: mAb019 (antibody, V domains shown)
# VH: QVQLVESGGGVVQPGRSLRLSCAASGFTFSSYGMHWVRQAPGKGLEWVAVIWYAGSRKFYADSVEGRFTISRDNSKNTLYLQMSSVRPEDTAVYYCARGGSLDGGFFYYGMDVWGQGTTVTVSS
# VL: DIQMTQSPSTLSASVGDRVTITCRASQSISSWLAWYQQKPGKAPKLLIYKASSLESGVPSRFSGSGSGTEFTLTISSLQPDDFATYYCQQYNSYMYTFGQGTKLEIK
# notes: as the VH of m12 (hab019 was made from the variable regions of mAb019); as the VL of m12; Human-murine chimeric antibody from H2L2 mice: human variable regions, rat constant regions; source: hybridoma cell culture supernatant, purified (Protein A)
# B2: hab019e1 (antibody, V domains shown)
# VH: QVQLVESGGGVVQPGRSLRLSCAASGFTFSSYGMHWVRQAPGKGLEWVAVIWYAGSRKFYADSVEGRFTISRDNSKNTLYLQMNSLRAEDTAVYYCARGGSLDGGFFYYGMDVWGQGTTVTVSS
# VL: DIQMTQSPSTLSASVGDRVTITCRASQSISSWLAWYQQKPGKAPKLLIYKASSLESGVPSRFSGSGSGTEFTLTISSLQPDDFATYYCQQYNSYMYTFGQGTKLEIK
# notes: 3503‐hab019‐VH(DG + NLA); positions not given; as the VL of m12 (3503‐hab019‐Vk); Whole antibody, human IgG1 heavy chain constant region, human kappa light chain constant region; source: FreeStyle 293F, transiently co-transfected, purified from culture supernatant
# B3: hab019e3 (antibody, V domains shown)
# VH: QVQLVESGGGVVQPGRSLRLSCAASGFTFSSYGMHWVRQAPGKGLEWVAVIWYAGSRKFYADSVEGRFTISRDNSKNTLYLQMNSLRAEDTAVYYCARGGSLDAGFFYYGMDVWGQGTTVTVSS
# VL: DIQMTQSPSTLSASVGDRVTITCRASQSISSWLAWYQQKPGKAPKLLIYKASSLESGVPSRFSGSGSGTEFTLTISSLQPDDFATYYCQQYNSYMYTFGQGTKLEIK
# notes: 3503‐hab019‐VH(DA + NLA); positions not given; as the VL of m12 (3503‐hab019‐Vk); Whole antibody, human IgG1 heavy chain constant region, human kappa light chain constant region; source: FreeStyle 293F, transiently co-transfected, purified from culture supernatant
# B4: hab019 (antibody, V domains shown)
# VH: QVQLVESGGGVVQPGRSLRLSCAASGFTFSSYGMHWVRQAPGKGLEWVAVIWYAGSRKFYADSVEGRFTISRDNSKNTLYLQMSSVRPEDTAVYYCARGGSLDGGFFYYGMDVWGQGTTVTVSS
# VL: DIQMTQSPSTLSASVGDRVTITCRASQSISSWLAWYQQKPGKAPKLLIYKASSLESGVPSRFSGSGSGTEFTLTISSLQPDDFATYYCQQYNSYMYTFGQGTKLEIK
# notes: 3503‐hab019‐VH; 3503‐hab019‐Vk; Whole antibody, human IgG1 heavy chain constant region, human kappa light chain constant region; source: FreeStyle 293F, transiently co-transfected, purified from culture supernatant
# B5: mAb070 (antibody, V domains shown)
# VH: QVQLVESGGGVVQPGRSLRLSCAASGFTFSSYGMHWVRQAPGKGLEWVAVIWYETSNKFYVDSVKGRFTISRDNSKNTLYLQMNSLRAEDTAVYYCARYGASSGWYWYFDLWGRGTLVTVSS
# VL: DIQLTQSPSFLSASVGDRVTITCRASQGISSFLAWYQQKPGKAPKLLIYAASTLQSGVPSRFSGSGSGTEFTLTISSLQPEDFATYCCQQLNSYPFTFGQGTKLEIK
# notes: as the VH of m14; as the VL of m14; Human-murine chimeric antibody from H2L2 mice: human variable regions, rat constant regions; source: hybridoma cell culture supernatant, purified (Protein A)
# B6: hab076 (antibody, V domains shown)
# VH: QVQLVESGGGVVQPGRSLRLSCAASGFTFSSYGMHWVRQAPGKGLEWVAVIWYETSNKYYADSVKGRFTISRDNSKNTLYLQMNSLRAEDTAVYYCARYGASSGWYWYFDLWGRGTLVTVSS
# VL: DIQLTQSPSFLSASVGDRVTITCRASQGISSYLAWYQQKPGKAPKLLIYAASTLQSGVPSRFSGSGSGTEFTLTISSLQPEDFATYCCQQLNSYPFTFGQGTKLEIK
# notes: 3503‐hab076‐VH; 3503‐hab076‐Vk; Whole antibody, human IgG1 heavy chain constant region, human kappa light chain constant region; source: FreeStyle 293F, transiently co-transfected, purified from culture supernatant
# B7: hab064 (antibody, V domains shown)
# VH: QVQLVESGGGVVQPGRSLRLSCAASGFTFSSYGMHWVRQAPGKGLEWVAVIWYETSNKYYADSVKGRFTISRDNSKNTLYLQMNNLRAEDTAVYYCARYGGNSGWYWYFDLWGRGTLVTVSS
# VL: DIQLTQSPSFLSASVGDRVTITCRASQGISSFLAWYQQKPGTAPKLLIYAASTLQSGVPSRFSGSGSGTEFTLTISSLQPEDFATYCCQQLNSYPFTFGQGTKLEIK
# notes: 3503‐hab064‐VH; 3503‐hab064‐Vk; Whole antibody, human IgG1 heavy chain constant region, human kappa light chain constant region; source: FreeStyle 293F, transiently co-transfected, purified from culture supernatant
# B8: hab070 (antibody, V domains shown)
# VH: QVQLVESGGGVVQPGRSLRLSCAASGFTFSSYGMHWVRQAPGKGLEWVAVIWYETSNKFYVDSVKGRFTISRDNSKNTLYLQMNSLRAEDTAVYYCARYGASSGWYWYFDLWGRGTLVTVSS
# VL: DIQLTQSPSFLSASVGDRVTITCRASQGISSFLAWYQQKPGKAPKLLIYAASTLQSGVPSRFSGSGSGTEFTLTISSLQPEDFATYCCQQLNSYPFTFGQGTKLEIK
# notes: 3503‐hab070‐VH; 3503‐hab070‐Vk; Whole antibody, human IgG1 heavy chain constant region, human kappa light chain constant region; source: FreeStyle 293F, transiently co-transfected, purified from culture supernatant
# B9: hab076e1 (antibody, V domains shown)
# VH: QVQLVESGGGVVQPGRSLRLSCAASGFTFSSYGMHWVRQAPGKGLEWVAVIWYETSNKYYADSVKGRFTISRDNSKNTLYLQMNSLRAEDTAVYYCARYGASSGWYWYFDLWGRGTLVTVSS
# VL: DIQLTQSPSFLSASVGDRVTITCRASQGISSYLAWYQQKPGKAPKLLIYAASTLQSGVPSRFSGSGSGTEFTLTISSLQPEDFATYYCQQLNSYPFTFGQGTKLEIK
# notes: as the VH of m15 (3503‐hab076‐VH); 3503‐hab076‐Vk(C2Y); the substitution is against the VL of m15 (Cys in FR3 of VL); position not given; Whole antibody, human IgG1 heavy chain constant region, human kappa light chain constant region; source: FreeStyle 293F, transiently co-transfected, purified from culture supernatant
# B10: mAb076 (antibody, V domains shown)
# VH: QVQLVESGGGVVQPGRSLRLSCAASGFTFSSYGMHWVRQAPGKGLEWVAVIWYETSNKYYADSVKGRFTISRDNSKNTLYLQMNSLRAEDTAVYYCARYGASSGWYWYFDLWGRGTLVTVSS
# VL: DIQLTQSPSFLSASVGDRVTITCRASQGISSYLAWYQQKPGKAPKLLIYAASTLQSGVPSRFSGSGSGTEFTLTISSLQPEDFATYCCQQLNSYPFTFGQGTKLEIK
# notes: as the VH of m15; as the VL of m15; Human-murine chimeric antibody from H2L2 mice: human variable regions, rat constant regions; source: hybridoma cell culture supernatant, purified (Protein A)
# B11: mAb064 (antibody, V domains shown)
# VH: QVQLVESGGGVVQPGRSLRLSCAASGFTFSSYGMHWVRQAPGKGLEWVAVIWYETSNKYYADSVKGRFTISRDNSKNTLYLQMNNLRAEDTAVYYCARYGGNSGWYWYFDLWGRGTLVTVSS
# VL: DIQLTQSPSFLSASVGDRVTITCRASQGISSFLAWYQQKPGTAPKLLIYAASTLQSGVPSRFSGSGSGTEFTLTISSLQPEDFATYCCQQLNSYPFTFGQGTKLEIK
# notes: as the VH of m13; as the VL of m13; Human-murine chimeric antibody from H2L2 mice: human variable regions, rat constant regions; source: hybridoma cell culture supernatant, purified (Protein A)
# B12: hab064e1 (antibody, V domains shown)
# VH: QVQLVESGGGVVQPGRSLRLSCAASGFTFSSYGMHWVRQAPGKGLEWVAVIWYETSNKYYADSVKGRFTISRDNSKNTLYLQMNSLRAEDTAVYYCARYGGNSGWYWYFDLWGRGTLVTVSS
# VL: DIQLTQSPSFLSASVGDRVTITCRASQGISSFLAWYQQKPGKAPKLLIYAASTLQSGVPSRFSGSGSGTEFTLTISSLQPEDFATYYCQQLNSYPFTFGQGTKLEIK
# notes: 3503‐hab064‐VH(N2S); the substitution is against the VH of m13; position not given; 3503‐hab064‐Vk(T2K/C2Y); the substitutions are against the VL of m13; positions not given; Whole antibody, human IgG1 heavy chain constant region, human kappa light chain constant region; source: FreeStyle 293F, transiently co-transfected, purified from culture supernatant
# Columns and labels:
# [1] = biological target: T1, cynoGITR on 293F‐cynoGITR cells; assay: flow cytometry on cells; 293F‐hGITR or 293F‐cynoGITR cells incubated with antibodies at 4 °C for 1 h, fluorescent anti-rat/human secondary antibody; EC50 of MFI curve; conditions: one partner purified
# [2] = biological target: T3, human GITR on 293F‐hGITR cells (Homo sapiens (Human)., UniProt Q9Y5U5-1); assay: as above; conditions: one partner purified
# T3 construct: Also used as the target of the functional rows (Jurkat‐hGITR‐NF‐ĸB‐Luc cells made with the same lentiviral construct; endogenous GITR on human T cells)
# T3 sequence (Q9Y5U5 26-241): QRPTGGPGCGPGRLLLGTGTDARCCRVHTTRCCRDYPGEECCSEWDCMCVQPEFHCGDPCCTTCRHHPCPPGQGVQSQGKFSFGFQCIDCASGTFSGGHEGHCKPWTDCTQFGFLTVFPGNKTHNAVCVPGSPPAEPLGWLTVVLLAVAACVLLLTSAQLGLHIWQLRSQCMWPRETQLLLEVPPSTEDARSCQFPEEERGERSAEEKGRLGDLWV
# [3] = biological target: T3, human GITR on 293F‐hGITR cells; assay: cell-based or functional assay
# cynoGITR ECD hFc = biological target: T2, cynoGITR ECD hFc; assay: ELISA; indirect ELISA; antigen hFc fusion protein coated on 96-well plates (1 μg·mL^−1 overnight at 4 °C in Fig. 3B), antibody added, detected with anti-rat IgG/hIgG-peroxidase antibody; conditions: both partners purified
# hGITR ECD hFc [4] = biological target: T4, hGITR ECD hFc (Homo sapiens (Human)., UniProt Q9Y5U5, Thr45Ala); assay: as above; conditions: both partners purified
# T4 construct: human GITR (glucocorticoid-induced TNF receptor-related), extracellular domain, Gln26-Glu161 with Thr45Ala, UniProt Q9Y5U5.1; also called human GITR protein; source: FreeStyle 293F, transiently transfected, purified by protein A
# hGITR ECD hFc [5] = biological target: T4, hGITR ECD hFc; assay: SPR; Biacore T200; hGITR ECD hFc immobilised on a Series S CM5 chip; antibody 0, 3.125, 6.25, 12.5, 25 and 50 nM; association 180 s, dissociation 600 s; conditions: both partners purified
Binder,EC50 [1],EC50 [2],"NF‐ĸB luciferase reporter assay, Crosslinking, EC50 [3]","NF‐ĸB luciferase reporter assay, Crosslinking, Top ratio [3]","NF‐ĸB luciferase reporter assay, No crosslinking, Top ratio [3]",EC50 (cynoGITR ECD hFc),EC50 (hGITR ECD hFc [4]),"NF‐ĸB luciferase reporter assay, No crosslinking, EC50 [3]",Kd (hGITR ECD hFc [5])
B1,11 pM,163 pM,12500 pM,11 fold,20 fold,7 pM,8 pM,,
B2,287 pM,181 pM,9460 pM,12 fold,8 fold,79 pM,82 pM,260 pM,
B3,277 pM,215 pM,8750 pM,14 fold,9 fold,89 pM,98 pM,269 pM,
B4,304 pM,244 pM,8660 pM,13 fold,10 fold,92 pM,103 pM,265 pM,401 pM
B5,198 pM,358 pM,> 90 pM,7 fold,10 fold,25 pM,22 pM,62 pM,
B6,418 pM,179 pM,6070 pM,20 fold,9 fold,101 pM,91 pM,157 pM,1030 pM
B7,220 pM,165 pM,7130 pM,12 fold,10 fold,108 pM,106 pM,177 pM,592 pM
B8,190 pM,190 pM,7320 pM,16 fold,9 fold,106 pM,99 pM,111 pM,251 pM
B9,260 pM,195 pM,5160 pM,13 fold,8 fold,94 pM,87 pM,264 pM,
B10,226 pM,152 pM,> 270 pM,8 fold,14 fold,12 pM,10 pM,> 90 pM,
B11,404 pM,385 pM,101 pM,7 fold,10 fold,35 pM,38 pM,> 200 pM,
B12,313 pM,235 pM,9260 pM,12 fold,11 fold,96 pM,93 pM,264 pM,
